Measured values as given in patent US20260102420A1, “CANCER IMMUNOTHERAPY” (Hoffmann-La Roche Inc., priority 2022, published 2026).
Like-named read-outs stand apart in the source and are kept apart here.

Key:
A549 = experiment: T cell-mediated killing assay, A549 wt vs UAP1 KO; type: cell-based, human; settings: FIG. 3C
Method: FIGS. 3A, 3B, 3C and 3D. Tumor intrinsic UAP1 regulates TCB-mediated cytotoxicity in vitro. T cell-mediated killing assay. UAP1 knockout cells and wt cells for FIG. 3A MKN45 with CEA-TCB, FIG. 3B MKN45 with EpCAM-TCB, FIG. 3C A549 with CEA-TCB and FIG. 3D B16F10 with Tyrp1-TCB were used and measured was the cell count of tumor cells over time in an incucyte. Graphs show mean±SEM. P values were calculated using two-tailed paired Student t-test. *P<0.05, **P<0.01
25000 MKN45-nuclight red (NLR), 20000 A549-hCEA and 10000 B16F10-NLR tumor cells (wt or UAP1 ko) were seeded in one well of a 96 well-plate. Afterwards TCBs or siinfekl were given at the indicated concentrations. […] For MKN45-NLR and B16F10-NLR, T cell-mediated killing was calculated based on the red fluorescent signal coming from the tumor cells. All values were first transformed to fold-change to time 0, and % specific lysis was calculated as follows: […]
For A549-hCEA, the cytotox-green reagent (sartorius) was added to the co-culture at 1:16000 dilution and T-cell mediated killing was assesses by measuring green fluorescent count in each well. All values were first transformed to fold-change to time 0, and then % normalized green signal was calculated as follows: [(Green fluorescent counts TCB/Green fluorescent counts control TCB)×100]. […] T-cell mediated killing was measured as above. […]

[1] = tested on: CEA expressing metastatic CRCs; settings: cited from earlier work
CD8+ and CD4+ T cells = experiment: Intra-tumor T cell activation marker analysis by flow cytometry; type: in vivo, mice; settings: UAP1 KO groups, not in wt; 32 days post tumor injection; FIGS. 12A and 12B
Method: FIGS. 12A and 12B. 32 days post tumor injection, scouts were taken for intra-tumor T cell activation marker analysis. […] Data were obtained using flow cytometry. P values were calculated using two-tailed paired Student t-test. *P<0.05, **P<0.01
To confirm that the observed effect was due to the involvement of the endogenous mouse immune system, the experiment was repeated in NSG immunodeficient mice.

MKN45 tumors = experiment: In vivo cancer model, MKN45 wt or UAP1 KO tumors in stem cell humanized NSG mice
Method: FIGS. 8A, 8B, 8C, 8D, and 8E. Deletion of UAP1 sensitizes MKN45 tumors to immunotherapy. FIG. 8A: Tumor growth curves of MKN45 wt and UAP1 KO cell in stem cell humanized NSG mice (huNSG). Animals were dosed either with vehicle control, 0.2 mg/kg or 0.4 mg/kg CEA-TCB. Time point of first dosing at day 15 as indicated. Tumor volume was measured with a caliper. Mice per group (n=10). FIG. 8B: Tumor volume ratio of TCB therapy groups and vehicle control groups for every time point after the first TCB treatment. FIG. 8C: Tumor growth curves for individual mice. Two-way-ANOVA statistical analysis was done with Graphpad Prism software. FIG. 8D and FIG. 8E show the measured individual tumor volumes over time within the treatment groups corresponding to the average values shown in FIGS. 8A and FIG. 8B.
Immunocompetent C57BL/6J and NOD.Cg-PrkdcscidIL-2rgtm1Wjl/SzJ (NSG) mice were obtained from Charles River Laboratories. All animal studies were performed under local Swiss government ethical approval and regulations (license ZH183/2020) according to international FELASA and national GV-Solas and TierSchG guidelines, respectively. […]
B16F10 and MKN45 wtl and UAP1 KO cells were trypsinized, washed and resuspended using a 1:1 mixture of tissue culture medium and Matrigel in a total volume of 100 μl. […] Tumors were measured twice weekly and tumor volume (mm3) was determined using the formula 0.5×length×width2. […]

B1: cibisatamab (antibody, chains of the INN, looked up, V domains shown)
VH: QVQLVQSGAEVKKPGASVKVSCKASGYTFTEFGMNWVRQAPGQGLEWMGWINTKTGEATYVEEFKGRVTFTTDTSTSTAYMELRSLRSDDTAVYYCARWDFAYYVEAMDYWGQGTTVTVSS
VL: DIQMTQSPSSLSASVGDRVTITCKASAAVGTYVAWYQQKPGKAPKLLIYSASYRKRGVPSRFSGSGSGTDFTLTISSLQPEDFATYYCHQYYTYPLFTFGQGTKLEIK
VH2: B1 VH
VL2: QAVVTQEPSLTVSPGGTVTLTCGSSTGAVTTSNYANWVQEKPGQAFRGLIGGTNKRAPGTPARFSGSLLGGKAALTLSGAQPEDEAEYYCALWYSNLWVFGGGTKLTVL
T cell killing of UAP1 KO cells compared to wt cells (A549): more efficiently killed
patients with radiological shrinkage ([1]; in combination with PD-L1-inhibiting antibodies, 5/10 patients): 50%
patients with radiological shrinkage ([1]; monotherapy, 4/36 patients, failed at least two prior chemotherapy regimens): 11%
expression of the activation/exhaustion marker (Tim3) in intra-tumor T cells (CD8+ and CD4+ T cells): increased expression
tumor response (MKN45 tumors; combination of UAP1 gene knockout and CEA TCB): complete tumor regression
tumor response (MKN45 tumors; mice treated with CEA-TCB only): incomplete tumor growth control
